Results on 4 molecules are retold here after US20160046707A1 (EISAI R AND D MANAGEMENT, published 2016).

Like-named read-outs stand apart in the source and are kept apart here.

Test [1] deals with T1, human CCL20-secreted alkaline phosphatase (SEAP) fusion (human, UniProt P78556 27-96).
T1 construct: also called hCCL20; human CCL20-SEAP; not shown: secreted alkaline phosphatase (SEAP), cDNA from pSEAP-Enhancer vector (Clontech)
Briefly: ELISA on CCL20-SEAP, Abs 450; x axis 'ug/ml' in 4-fold steps down from 10, taken as the antibody concentration as in FIG. 11C. On the technique in general: An ELISA detects its analyte on a solid surface through an enzyme-linked reagent.

The target of test [2] is T2, rhesus CCL20-secreted alkaline phosphatase (SEAP) fusion (rhesus monkey).
T2 construct: also called rCCL20; rhesus CCL20-SEAP; not shown: the SEAP reporter (cDNA from Clontech pSEAP-Enhancer) and its junction to CCL20
T2 chain: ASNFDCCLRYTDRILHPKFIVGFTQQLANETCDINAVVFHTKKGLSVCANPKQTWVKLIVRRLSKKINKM
The test is described as above.

Test [3] has as its target T3, rat CCL20-secreted alkaline phosphatase (SEAP) fusion (rat, UniProt P97884 27-96; P05187 23-511). The test is described as above.
Test [4] addresses T4, cynomolgus CCL20-secreted alkaline phosphatase (SEAP) fusion (cynomolgus monkey).
T4 construct: also called cCCL20; cynomolgus CCL20-SEAP; not shown: the SEAP reporter (cDNA from Clontech pSEAP-Enhancer) and its junction to CCL20
T4 chain: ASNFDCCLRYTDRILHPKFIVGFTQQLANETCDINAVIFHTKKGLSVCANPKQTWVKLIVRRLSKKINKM
The description is as above.

For a further test, the target named is T5, recombinant human CCL16 (human, UniProt O15467 24-120).
T5 construct: also called HCC-4
T5 sequence (looked up): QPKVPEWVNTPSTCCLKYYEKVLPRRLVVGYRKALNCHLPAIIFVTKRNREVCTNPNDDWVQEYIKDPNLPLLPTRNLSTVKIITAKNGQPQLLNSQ
The test is described as follows: SPR (Biacore): antibody captured on anti-human Fc, 100 nM chemokine injected. As for the experimental part:
We used Biacore™ analysis to test whether HC2/LK3 and HC2/LC3 cross-react with CCL16. Monoclonal mouse anti-human Fc was immobilized on all four flow cells of a CM5 chip at a flow rate of 25 μl/min with HBS-EP buffer containing 0.2 mg/mL BSA. Subsequently, 50 μl of a 1 μg/ml solution of chimeric, HC2/LC3, or HC2/LK3 antibody in HBS-EP buffer with 0.2 mg/ml BSA was injected over flow cells 2, 3, and 4, respectively. 150 μl of a 100 nM solution of CCL20 or CCL16 in HBS-EP buffer (or buffer alone) with 0.2 mg/ml BSA was then injected over all four flow cells at a flow rate of 40 μl/min. Dissociation followed for 20 min. Flow cell 1 (anti-human Fc antibody alone) was used as a reference for all flow cells.
Under these conditions, human CCL20 bound to the chimeric (FIG. 13A), HC2/LC3 (FIG. 13B), and HC2/LK3 (FIG. 13B) antibodies captured on the chip with similar strength.
For orientation: SPR reads the build-up and loss of mass on a sensor chip optically.

Test [5] concerns the target T1, human CCL20-secreted alkaline …. The test is described as follows: ELISA on CCL20-SEAP, Abs 450; x axis 'ug/ml' in 4-fold steps down from 10, taken as the antibody concentration as in FIG. 11C. The source holds these as a separate data set.
The target in test [6] is T2, rhesus CCL20-secreted alkaline …. Described as above.
The target in test [7] is T3, rat CCL20-secreted alkaline phosphatase …. Described as above. The source holds these as a separate data set.
The target in test [8] is T4, cynomolgus CCL20-secreted alkaline …. The description is as above.
Test [9] shares this target. The test is described as follows: ELISA, serially diluted CCL20-SEAP captured by anti-alkaline phosphatase antibody, antibody at 1 µg/ml; cynomolgus CCL20-SEAP. As for the experimental part:
To test whether the chimeric and humanized antibodies can bind to mouse, cynomolgus, or rhesus macaque CCL20 orthologs, we used ELISA assays as illustrated in FIG. 15. Recombinant secreted alkaline phosphatase (SEAP)-chemokine fusion proteins were engineered as described in Example 2, expressed and purified for all of the CCL20 orthologs tested. Nunc MaxiSorb flat-bottom black plates were coated with 1 μg/ml mouse anti-placental alkaline phosphatase antibody (Pierce, cat# MA1-19354) in 50 mM sodium bicarbonate, pH 9.4, overnight at 4° C. Plates were then blocked using 1× phosphate buffered saline with Tween-20 (PBST) with 5% bovine serum albumin (BSA) for 2 hours at room temperature. 20 nM SEAP-CCL20 fusion proteins were serially diluted 5-fold in Opti-MEM medium (Invitrogen). Chimeric and humanized (HC2/LC3 and HC2/LK3) antibodies were diluted to 1 μg/ml in 1×PBST with 5% BSA, added to the plates, and incubated for 1 hr at room temperature. The plates were then washed with 1×PBST with 5% BSA three times. […] QuantaBlu fluorescent HRP substrate (Pierce cat#15169) was added for detection of bound antibody by measuring fluorescence in a Molecular Devices M5 (Excitation 325 nm/Emission 420 nm) plate reader.

T3 sequence (P97884 other isoform, or with tags, fused parts or gaps): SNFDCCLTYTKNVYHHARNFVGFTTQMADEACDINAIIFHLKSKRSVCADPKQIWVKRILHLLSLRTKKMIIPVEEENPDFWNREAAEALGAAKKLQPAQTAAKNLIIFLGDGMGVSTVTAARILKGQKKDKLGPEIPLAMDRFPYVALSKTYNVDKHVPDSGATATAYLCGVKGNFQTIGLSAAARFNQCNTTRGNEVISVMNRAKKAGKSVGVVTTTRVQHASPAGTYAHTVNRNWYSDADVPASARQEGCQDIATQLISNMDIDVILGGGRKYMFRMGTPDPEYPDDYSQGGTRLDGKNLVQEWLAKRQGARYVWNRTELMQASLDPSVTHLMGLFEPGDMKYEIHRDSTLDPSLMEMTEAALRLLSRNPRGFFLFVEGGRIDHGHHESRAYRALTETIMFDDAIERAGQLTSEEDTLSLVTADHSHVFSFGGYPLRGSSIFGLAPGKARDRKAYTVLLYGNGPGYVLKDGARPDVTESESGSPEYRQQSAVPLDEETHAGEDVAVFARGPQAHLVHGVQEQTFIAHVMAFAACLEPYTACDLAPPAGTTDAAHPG
T1 sequence (P78556 27-96): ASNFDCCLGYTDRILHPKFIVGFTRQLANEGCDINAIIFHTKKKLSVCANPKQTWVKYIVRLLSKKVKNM

B1: mouse anti-human CCL20 monoclonal antibody 36F7C10 (antibody, V domains shown)
VH: QVQLQQPGAELVKPGASVKMSCKASGYTFTNYWMHWVKQRPGQGLEWIGVIDPSDSYTTYNQKFKGKATLTVDTSSSTAYMQLSSLTSEDSAVYYCTRGNYGVDYAMDYWGQGTSVTVSS
VL: DIQMTQSPASLSASVGETVTITCGASENIYGALNWYQRKQGKSPQLLIYGATNLADGMSSRFSGSGSGRQYSLKISSLHPDDVATYYCQNVLITPYTFGGGTKLEIK
notes: Mouse hybridoma antibody; also called MouseMAb; parental mouse clone 36F7C10
Broadly, the EC50 (read off the curve) is the midpoint of the concentration-response curve. Higher therefore signals a need for much substance. B1: the “EC50 (read off the curve)” value was ~0.009 µg/mL in test [1], ~0.01 µg/mL in test [2] and ~0.009 µg/mL in test [4]. Also, the binding result in test [3] is “no binding (tested: 10 ug/ml)”.

B2: chimeric 36F7C10 antibody (36F7C10-hFc) (antibody, V domains shown)
VH: QVQLQQPGAELVKPGASVKMSCKASGYTFTNYWMHWVKQRPGQGLEWIGVIDPSDSYTTYNQKFKGKATLTVDTSSSTAYMQLSSLTSEDSAVYYCTRGNYGVDYAMDYWGQGTSVTVSS
VL: DIQMTQSPASLSASVGETVTITCGASENIYGALNWYQRKQGKSPQLLIYGATNLADGMSSRFSGSGSGRQYSLKISSLHPDDVATYYCQNVLITPYTFGGGTKLEIK
notes: also called chimeric 36F710; Chimeric MAb
On to B2, for which the “EC50 (read off the curve)” value in [1], in test [2] and in test [4] was ~0.03 µg/mL throughout. Also, the results for the binding result (in test [3]; with recombinant human CCL16) were “no binding (tested: 10 ug/ml)” and “no binding (tested: 100 nM)”, respectively.

B3: humanized anti-human CCL20 antibody 36LK3/36HC2 (antibody, human IgG1, kappa, V domains shown)
VH: QVQLVQSGAEVKKPGASVKVSCKASGYTFTNYWMHWVRQAPGQGLEWMGVIDPSDSYTTYAQKFQGRVTMTVDTSTSTVYMELSSLRSEDTAVYYCARGNYGVDYAMDYWGQGTLVTVSS
VL: DIQMTQSPSSLSASVGDRVTITCGASENIYGALNWYQRKPGKAPKLLIYGATNLADGVPSRFSGSGSGRDYTLTISSLQPEDFATYYCQNVLITPYTFGQGTKLEIKR
notes: expressed in HEK293 cells; also called HC2/LK3; HC2LK3
In the case of B3, the binding result in the test with recombinant human CCL16 is “no binding (tested: 100 nM)”; in [7] it was “no binding (tested: 10 ug/ml)”. In addition, the “EC50 (read off the curve)” value in test [5], in test [6] and in test [8] was ~0.02 µg/mL each time.

B4: humanized anti-human CCL20 antibody 36LC3/36HC2 (antibody, human IgG1, kappa, V domains shown)
VH: QVQLVQSGAEVKKPGASVKVSCKASGYTFTNYWMHWVRQAPGQGLEWMGVIDPSDSYTTYAQKFQGRVTMTVDTSTSTVYMELSSLRSEDTAVYYCARGNYGVDYAMDYWGQGTLVTVSS
VL: DIQMTQSPSSLSASVGDRVTITCRASENIYGALNWYQQKPGKAPKLLIYGATNLADGVPSRFSGSGSGRQYSLTISSLQPEDFATYYCQNVLITPYTFGGGTKLEIKR
notes: expressed in HEK293 cells; also called HC2/LC3; HC2LC3
In general, EC50 refers to the midpoint of the concentration-response curve. With B4, the midpoint of the response in test [9], the EC50, lay at 0.34 nM. Besides, the “EC50 (read off the curve)” value in test [5], in test [6] and in test [8] was ~0.02 µg/mL in each case. Besides, the binding result in test [7] is given as “no binding (tested: 10 ug/ml)”.
